According to patent US20040023858A1, “Antifungal combination therapy” (priority 2000, published 2004):

Tested on: Candida albicans FP633
Test: Survival of neutropenic mice with disseminated candidiasis (G-CSF and Test Compound, alone and combined)
Type: in vivo, ICR mice
Settings: C. albicans, day 6 after infection
Description: Disseminated candidiasis were induced in ICR mice by the intravenous inoculation of 0.2 ml of cell suspension of Candida albicans FP633 via their lateral tail veins. Cyclophosphamide was administered intraperitoneally at 200 mg/kg 4 days before and 1 day after infection. G-CSF was administered intraperitoneally once daily for 5 days starting at 3 days before infection. Test Compound was administered once daily for 4 days starting at 1 hour after infection by intravenous injection. The survival rate (%) was calculated at 6 days after infection.
1) Survival rate of neutropenic mice infected with C. albicans on day 6 after infection

| Molecule | Survival rate (Test Compound 0.2 mg/kg i.v. once daily for 4 days, G-CSF 0 μg/kg, cyclophosphamide-treated neutropenic ICR mice) [%] | Survival rate (G-CSF 2.5 μg/kg i.p. once daily for 5 days, Test Compound 0 mg/kg, neutropenic ICR mice) [%] | Survival rate (G-CSF 5 μg/kg i.p. once daily for 5 days, Test Compound 0 mg/kg, neutropenic ICR mice) [%] | Survival rate (G-CSF 10 μg/kg i.p. once daily for 5 days, Test Compound 0 mg/kg, neutropenic ICR mice) [%] |
| --- | --- | --- | --- | --- |
| CCCCCOc1ccc(-c2cc(-c3ccc(C(=O)NC4CC(O)C(O)NC(=O)C5C(O)C(C)CN5C(=O)C(C(O)CC(N)=O)NC(=O)C(C(O)C(O)c5ccc(O)c(OS(=O)(=O)[O-])c5)NC(=O)C5CC(O)CN5C(=O)C(C(C)O)NC4=O)cc3)no2)cc1.[Na+] (stereo not shown) [Test Compound] | 25 | – | – | – |
| G-CSF: granulocyte colony stimulating factor, stimulates the production of white blood cells (protein, UniProt P09919 31-207, looked up) Granulocyte …: TPLGPASSLPQSFLLKCLEQVRKIQGDGAALQEKLVSECATYKLCHPEELVLLGHSLGIPWAPLSSCPSQALQLAGCLSQLHSGLFLYQGLLQALEGISPELGPTLDTLQLDVADFATTIWQQMEELGMAPALQPTQGAMPAFASAFQRRAGGVLVASHLQSFLEVSYRVLRHLAQP | – | 0 | 25 | 50 |
